Substitutions are numbered along the chain they refer to.
Experiments:
Ang2 RBD mutant F469 = target: T1, Ang2 RBD mutant F469 (human, UniProt O15123 276-496); test: ELISA; antibody coated, FLAG-tagged RBD mutant, anti-FLAG-HRP detection
T1 chain: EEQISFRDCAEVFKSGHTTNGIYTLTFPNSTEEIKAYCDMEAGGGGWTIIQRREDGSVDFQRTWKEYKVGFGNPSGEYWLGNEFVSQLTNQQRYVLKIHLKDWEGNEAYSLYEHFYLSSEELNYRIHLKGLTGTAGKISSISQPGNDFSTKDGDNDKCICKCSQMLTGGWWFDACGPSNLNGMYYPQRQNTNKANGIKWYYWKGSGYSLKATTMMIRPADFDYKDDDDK

Ang2 RBD mutant I434 = target: T2, Ang2 RBD mutant I434 (human, UniProt O15123 276-496); test: as above
T2 chain: T1 chain with I159A, A194F

Ang2 RBD mutant Q418 = target: T3, Ang2 RBD mutant Q418 (human, UniProt O15123 276-496); test: as above
T3 chain: T1 chain with Q143A, A194F

Ang2 RBD mutant P419 = target: T4, Ang2 RBD mutant P419 (human, UniProt O15123 276-496); test: as above
T4 chain: T1 chain with P144A, A194F

Ang2 RBD mutant N421 = target: T5, Ang2 RBD mutant N421 (human, UniProt O15123 276-496); test: as above
T5 chain: T1 chain with N146A, A194F

Ang2 RBD mutant P452 = target: T6, Ang2 RBD mutant P452 (human, UniProt O15123 276-496); test: as above
T6 chain: T1 chain with P177A, A194F

[1] = target: T7, mouse Ang2 (Accession # NP-031452) (R&D Systems) (mouse, UniProt O35608 19-496); test: ELISA on coated mouse Ang2
T7 construct: Bought protein coated on the ELISA plate; also called mAng2
T7 sequence (looked up): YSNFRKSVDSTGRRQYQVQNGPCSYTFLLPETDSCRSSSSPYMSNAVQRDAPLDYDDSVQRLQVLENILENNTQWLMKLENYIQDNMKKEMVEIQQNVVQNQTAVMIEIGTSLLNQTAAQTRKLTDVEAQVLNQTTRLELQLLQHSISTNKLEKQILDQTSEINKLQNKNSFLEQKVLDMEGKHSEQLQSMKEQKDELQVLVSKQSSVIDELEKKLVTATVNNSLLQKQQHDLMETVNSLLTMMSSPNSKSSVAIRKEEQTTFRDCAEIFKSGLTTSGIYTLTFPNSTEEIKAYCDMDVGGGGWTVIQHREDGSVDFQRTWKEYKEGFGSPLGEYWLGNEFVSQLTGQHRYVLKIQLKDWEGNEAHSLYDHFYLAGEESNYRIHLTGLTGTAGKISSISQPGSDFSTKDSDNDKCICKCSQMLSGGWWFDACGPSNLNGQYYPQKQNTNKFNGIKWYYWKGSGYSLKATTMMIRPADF

B1: SAIT-ANG2-AB-m1A10 (antibody, V domains shown)
VH: QVQLQQSGAELMKPGASVKISCKATDYTFSSYWLEWLIQRPGHGLEWIGEILPGSGSTNYNEKFRGKATFTEDTSSNTAYMQLSSLTSEDSAVYYCARGNHNSYYYAMDYWGQGTSVTVSS
VL: DIVLTQSPASLAVSLGQRATISCRASESVDSYGNSFMHWYQQKPGQPPKLLIYRASNLDSGIPARFSGSGSRTDFTLTINPVEADDVATYYCQQSNEDPLTFGAGTKLELK
notes: also called hybridoma KCLRF-BP-00306
B1 was tested, and the “Binding (%) (mutant Ang2 / native Ang2)” value (Ang2 RBD mutant F469) was 77.9%, the “Binding (%) (mutant Ang2 / native Ang2)” value (Ang2 RBD mutant I434) was 93.2% and the “Binding (%) (mutant Ang2 / native Ang2)” value (Ang2 RBD mutant Q418) was 97.2%. The “Binding (%) (mutant Ang2 / native Ang2)” value (Ang2 RBD mutant P419) was 102%, the “Binding (%) (mutant Ang2 / native Ang2)” value (Ang2 RBD mutant N421) was 89.3% and the “Binding (%) (mutant Ang2 / native Ang2)” value (Ang2 RBD mutant P452) was 105%. B1: no binding [1].
